# Test results: US20140348805A1
# Biological target: HLA-A2 (HLA-A*0201) presenting tyrosinase369-377 peptide … on cells (human)
# Assay: cell-based or functional assay
Substance,IFN-γ secretion after co-culture with Mel-93.04A12 (HLA-A2+tyrosinase+) [pg/mL],"peptide concentration needed for 50% relative lysis (half-maximum lysis), 51Cr-release assay, peptide-pulsed T2 cells [pM]","specific lysis of melanoma cells, 51Cr-release assay [%]","amount of peptide presented by T2 cells to cause release of 2000 pg/ml interferon-gamma, fold lower than TCR-D115 [fold]",maximum level of interferon-gamma in 24 hours (T2 cells pulsed with YMD peptide) [pg/mL],"peptide amount at first detection of cytokine secretion, fold less than TCR-D115 (PBMC pulsed with YMD peptide) [fold]","peptide concentration for 50% of maximal interferon-gamma release, fold lower than TCR-D115 (T2 cells pulsed with YMD peptide) [fold]"
"TCR of T cell clone T58 (TCR-T58), human constant regions (from UniProt P01848 1-140)",1230,600,76,,,,
"TCR-T58 with murine constant regions (TCRbeta-P2A-TCRalpha, codon-optimized) (from UniProt P01849 1-136)",,,,15000,5000,1000,100
